Measurements from PMC11059090.

Tests used:
[1] = system: rabbit anti-human IgG Fc-specific monoclonal (RAH) (rabbit); test: ITC; details: unlabeled IgG; 80 uM aptamer into 2.5 uM IgG; ITC: PBS (10 mM phosphate, 2.7 mM KCl, 137 mM NaCl, pH 7.4), 25 C; FRET: Ex 550 nm, Em 620/670 nm, titration buffer not stated
[2] = system: purified whole IgG from rabbit serum (polyclonal) (rabbit); test: ITC; details: unlabeled IgG; 80 uM aptamer into 2.5 uM IgG; ITC: PBS (10 mM phosphate, 2.7 mM KCl, 137 mM NaCl, pH 7.4), 25 C; FRET: Ex 550 nm, Em 620/670 nm, titration buffer not stated
[3] = system: ALEXA-594-labeled rabbit anti-human IgG Fc-specific monoclonal (594-RAH) (rabbit); test: FRET titration; details: apparent Kd, ITC: PBS (10 mM phosphate, 2.7 mM KCl, 137 mM NaCl, pH 7.4), 25 C, FRET: Ex 550 nm, Em 620/670 nm, titration buffer not stated

CCAACCACACATCCTTCCATCGACATGGACCCACCGTTCC [AptaShield DNA aptamer]
Kd [1]: 224 nM
Kd [2]: 890 nM
Kd ([3]; RAH-594 titrated into 200 nM aptamer): 95 nM
Kd ([3]; aptamer titrated into 200 nM RAH-594): 44.5 nM
